# Changes are numbered by the printed parent chain. Names and notes keep the numbering of the source.
# B1: CD80 E35D/D46V/M47L/V68M/L85Q/E88D IgV-Fc, GS(G4S)5 linker (Fc fusion)
# chain: VIHVTKEVKEVATLSCGHNVSVEELAQTRIYWQKDKKMVLTMMSGVLNIWPEYKNRTIFDITNNLSIMILALRPSDEGTYECVVQKYDKDAFKREHLAEVTLSVKADGSGGGGSGGGGSGGGGSGGGGSGGGGS
# B2: CD80 E35D/M47V/N48K/V68M/K89N IgV-Fc, EAAAK linker (Fc fusion)
# chain: VIHVTKEVKEVATLSCGHNVSVEELAQTRIYWQKDKKMVLTMMSGDVKIWPEYKNRTIFDITNNLSIMILALRPSDEGTYECVVLKYENDAFKREHLAEVTLSVKADEAAAK
# B3: CD80 E35D/D46V/M47L/V68M/L85Q/E88D IgV-Fc, EAAAK linker (Fc fusion)
# chain: B2 chain with D46V, V47L, K48N, L85Q, E88D, N89K
# B4: variant CD80 IgV-Fc (inert) H18L/A26N/D46E/V68M/A71G/D90G (Fc fusion)
# chain: VIHVTKEVKEVATLSCGLNVSVEELNQTRIYWQKEKKMVLTMMSGEMNIWPEYKNRTIFDITNNLSIMILGLRPSDEGTYECVVLKYEKGAFKREHLAEVTLSVKAD
# B5: variant CD80 IgV-Fc (inert) H18V/A26P/E35D/M47L/V68M/A71G (Fc fusion)
# chain: B4 chain with L18V, N26P, E35D, E46D, M47L, G90D
# B6: CD80 E35D/M47V/N48K/V68M/K89N IgV-Fc, (EAAAK)3 linker (Fc fusion)
# chain: VIHVTKEVKEVATLSCGHNVSVEELAQTRIYWQKDKKMVLTMMSGDVKIWPEYKNRTIFDITNNLSIMILALRPSDEGTYECVVLKYENDAFKREHLAEVTLSVKADEAAAKEAAAKEAAAK
# B7: CD80 E35D/D46V/M47L/V68M/L85Q/E88D IgV-Fc, (EAAAK)3 linker (Fc fusion)
# chain: B6 chain with D46V, V47L, K48N, L85Q, E88D, N89K
# B8: variant CD80 IgV-Fc H18Y/A26E/E35D/M47L (Fc fusion)
# chain: B4 chain with L18Y, N26E, E35D, E46D, M47L, M68V, G71A, G90D
# B9: variant CD80 IgV-Fc H18Y/E35D/A71G/D90G (Fc fusion)
# chain: B4 chain with L18Y, N26A, E35D, E46D, M68V
# B10: variant CD80 IgV-Fc E35D/M47L/V68M/D90G (Fc fusion)
# chain: B4 chain with L18H, N26A, E35D, E46D, M47L, G71A
# B11: variant CD80 IgV-Fc E35G/K54E/A71D/L72P (Fc fusion)
# chain: B4 chain with L18H, N26A, E35G, E46D, K54E, M68V, G71D, L72P, G90D
# B12: CD80 E35D/M47V IgV-Fc (Fc fusion)
# chain: B4 chain with L18H, N26A, E35D, E46D, M47V, M68V, G71A, G90D
# B13: CD80 H18Y/E35D/M47L/A71G/A91S IgV-Fc (Fc fusion)
# chain: B4 chain with L18Y, N26A, E35D, E46D, M47L, M68V, G90D, A91S
# B14: CD80 E35D/D46E/M47I IgV-Fc (Fc fusion)
# chain: B4 chain with L18H, N26A, E35D, M47I, M68V, G71A, G90D
# B15: CD80 E35D/L97R IgV-Fc (Fc fusion)
# chain: B4 chain with L18H, N26A, E35D, E46D, M68V, G71A, G90D, L97R
# B16: variant CD80 IgV-Fc I30T/L70R (Fc fusion)
# chain: B4 chain with L18H, N26A, I30T, E46D, M68V, L70R, G71A, G90D
# B17: CD80 IgV-Fc E35D/M47V/N48K/V68M/A71G/L85M (Fc fusion)
# chain: B4 chain with L18H, N26A, E35D, E46D, M47V, N48K, L85M, G90D
# B18: CD80 IgV-Fc E35D/M47L/Y53F/V68M/A71G/K93R/E95V (Fc fusion)
# chain: B4 chain with L18H, N26A, E35D, E46D, M47L, Y53F, G90D, K93R, E95V
# B19: CD80 IgV-Fc T13R/Q33R/E35D/M38I/M47L/V68M/E95V/L97Q (Fc fusion)
# chain: VIHVTKEVKEVARLSCGHNVSVEELAQTRIYWRKDKKIVLTMMSGDLNIWPEYKNRTIFDITNNLSIMILALRPSDEGTYECVVLKYEKDAFKRVHQAEVTLSVKAD
# B20: variant CD80 IgV-Fc E35D/T57I/L70Q/A71D (Fc fusion)
# chain: B4 chain with L18H, N26A, E35D, E46D, T57I, M68V, L70Q, G71D, G90D
# B21: variant CD80 IgV-Fc V20I/M47V/T57I/V84I (Fc fusion)
# chain: B4 chain with L18H, V20I, N26A, E46D, M47V, T57I, M68V, G71A, V84I, G90D
# Target: human CTLA-4 (human) (UniProt P16410)
# Sequence (P16410 36-223): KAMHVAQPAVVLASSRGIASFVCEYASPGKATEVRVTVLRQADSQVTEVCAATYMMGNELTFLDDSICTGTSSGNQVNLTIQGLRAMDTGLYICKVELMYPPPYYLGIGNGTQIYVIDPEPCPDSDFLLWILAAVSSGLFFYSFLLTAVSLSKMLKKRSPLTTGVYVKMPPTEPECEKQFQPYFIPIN
# Test: flow cytometry, CHO/CTLA4 cells; MFI over CD80 WT IgV-Fc
row,Binder,Fold change to WT CD80 [fold]
1,B1,22.2
2,B2,23
3,B3,24.2
4,B4,12.3
5,B5,11.7
6,B6,22.6
7,B7,26.8

# Target: CD28 (human) (UniProt P10747)
# Test: flow cytometry, Jurkat cells (CD28)
Binder,MFI at 33.3 nM [MFI],Fold change to WT CD80 [fold]
B1,143,
B2,2630,
B3,563,
B8,324,7.4
B4,7250,
B9,1310,29.8
B5,2450,
B10,3410,77.8
B6,1280,
B7,197,

# Target: human PD-L1 (human) (UniProt Q9NZQ7)
# Test: flow cytometry, MFI on PD-L1 cells over MFI on CD28 cells
# Target sequence in this assay (Q9NZQ7 19-290): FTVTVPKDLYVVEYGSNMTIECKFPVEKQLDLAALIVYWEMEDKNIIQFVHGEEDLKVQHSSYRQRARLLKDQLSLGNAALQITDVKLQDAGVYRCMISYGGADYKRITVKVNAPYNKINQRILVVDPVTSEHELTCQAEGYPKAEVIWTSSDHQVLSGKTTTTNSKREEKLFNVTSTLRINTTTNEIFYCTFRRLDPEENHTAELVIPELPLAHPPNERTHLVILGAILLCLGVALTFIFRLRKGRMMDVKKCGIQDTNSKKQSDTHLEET
row,Binder,Ratio of PDL1:CD28
1,B8,30.7
2,B9,6.5
3,B10,6.9

# Target: human CTLA-4 (human) (UniProt P16410)
# Test: flow cytometry, CHO cells stably expressing CTLA4
Binder,MFI at 33.3 nM [MFI],Fold change to WT CD80 [fold]
B1,26600,
B2,27500,
B3,29000,
B8,24000,17.7
B4,17000,
B9,25900,19
B5,16200,
B10,27600,20.3
B6,27100,
B7,32000,

# Target: human PD-L1 (human) (UniProt Q9NZQ7)
# Test: flow cytometry, HEK293 cells transfected with full-length human PD-L1, PE anti-human Fc
# Target sequence in this assay (Q9NZQ7 19-290): as above
row,Binder,MFI at 22.2 nM [MFI]
1,B11,1580

# Target: human PD-L1 (human) (UniProt Q9NZQ7)
# Test: not given
# Target sequence in this assay (Q9NZQ7 19-290): as above
row,Binder,"IL2-luciferase reporter, fold increase in RLU over WT CD80-IgV-Fc at 5.0 nM [fold]"
1,B4,4.8
2,B5,4.7

# Target: CD28 (human) (UniProt P10747)
# Test: not given
row,Binder,"IL2-luciferase reporter, fold increase in RLU over WT CD80-IgV-Fc at 5.0 nM [fold]"
1,B4,4.8
2,B5,4.7

# Target: human PD-L1 (human) (UniProt Q9NZQ7)
# Test: not given
# Remark: another data set of the same source
# Target sequence in this assay (Q9NZQ7 19-290): as above
row,Binder,"IL2-luciferase reporter, fold increase in RLU over WT CD80-IgV-Fc at 5.0 nM [fold]"
1,B1,5.26
2,B2,4.38
3,B3,3.75
4,B6,4.52
5,B7,5.25

# Target: CD28 (human) (UniProt P10747)
# Test: not given
# Remark: another data set of the same source
row,Binder,"IL2-luciferase reporter, fold increase in RLU over WT CD80-IgV-Fc at 5.0 nM [fold]"
1,B1,5.26
2,B2,4.38
3,B3,3.75
4,B6,4.52
5,B7,5.25

# Target: human PD-L1 (human) (UniProt Q9NZQ7)
# Test: not given
# Remark: another data set of the same source
# Target sequence in this assay (Q9NZQ7 19-290): as above
row,Binder,"IL2-luciferase reporter (RLU), fold increase over WT CD80-IgV-Fc at 5.0 nM [fold]"
1,B12,3.4
2,B13,4.7
3,B14,4.8
4,B15,2.3

# Target: CD28 (human) (UniProt P10747)
# Test: not given
# Remark: another data set of the same source
row,Binder,"IL2-luciferase reporter (RLU), fold increase over WT CD80-IgV-Fc at 5.0 nM [fold]"
1,B12,3.4
2,B13,4.7
3,B14,4.8
4,B15,2.3

# Target: CD28 (human) (UniProt P10747)
# Test: flow cytometry, Jurkat cells (CD28); MFI over CD80 WT IgV-Fc
row,Binder,Fold change to WT CD80 [fold]
1,B1,2.6
2,B2,47.1
3,B3,10.1
4,B4,71.1
5,B5,24
6,B6,23
7,B7,3.5

# Target: human PD-L1 (human) (UniProt Q9NZQ7)
# Test: flow cytometry, CHO cells stably expressing PD-L1
# Target sequence in this assay (Q9NZQ7 19-290): as above
Binder,MFI at 33.3 nM [MFI],Fold change to WT CD80 [fold]
B1,22400,
B2,22900,
B3,24800,
B8,9950,228
B4,68000,
B9,8520,196
B5,52400,
B10,23500,539
B6,24500,
B7,25500,

# Target: human PD-L1 (human) (UniProt Q9NZQ7)
# Test: not given
# Remark: another data set of the same source
# Target sequence in this assay (Q9NZQ7 19-290 limits assumed): as the sequence (Q9NZQ7 19-290) above
row,Binder,"IL-2 luciferase reporter, fold increase over WT CD80-IgV-Fc at 5.0 nM [fold]"
1,B8,3.1
2,B9,3.81
3,B10,1.82

# Target: CD28 (human) (UniProt P10747)
# Test: not given
# Remark: another data set of the same source
row,Binder,"IL-2 luciferase reporter, fold increase over WT CD80-IgV-Fc at 5.0 nM [fold]"
1,B8,3.1
2,B9,3.81
3,B10,1.82

# Target: human PD-L1 (human) (UniProt Q9NZQ7)
# Test: flow cytometry, HEK293 cells transfected with human PD-L1
row,Binder,MFI at 22.2 nM
1,B16,5160

# Target: human PD-L1 (human) (UniProt Q9NZQ7)
# Test: not given
# Remark: another data set of the same source
row,Binder,RLU at 5.0 nM: Fold Increase over WT CD80-IgV-Fc [fold]
1,B17,3.6
2,B18,3.9
3,B19,2.5

# Target: CD28 (human) (UniProt P10747)
# Test: not given
# Remark: another data set of the same source
row,Binder,RLU at 5.0 nM: Fold Increase over WT CD80-IgV-Fc [fold]
1,B17,3.6
2,B18,3.9
3,B19,2.5

# Target: CD28 (human) (UniProt P10747)
# Test: not given
# Remark: another data set of the same source
row,Binder,Fold increase in IL2 reporter signal (Jurkat/IL2 reporter assay) (fold vs WT CD80 IgV-Fc)
1,B20,0.07
2,B21,0.45

# Target: human PD-L1 (human) (UniProt Q9NZQ7)
# Test: flow cytometry, CHO/PD-L1 cells; MFI over CD80 WT IgV-Fc
row,Binder,Fold change to WT CD80 [fold]
1,B1,481
2,B2,491
3,B3,533
4,B4,412
5,B5,318
6,B6,525
7,B7,546
